Test results published in patent publication US20120058906A1 (published 2012).
Where a chain is given by its changes, count along the chain named. In names and notes the source's numbering stands.

Key:
[1] = molecular target: T1, rHuman IGF-1 sR (insulin-like growth factor-1 soluble receptor), CF (R&D Systems Cat#391-GR) (human, UniProt P08069 31-932); assay: MSD ECL multi-spot, Fab 0.43 uM, blank 879
T1 construct: Bought soluble receptor; also called IGF-R1

[2] = molecular target: T2, Recombinant Human DLL4 (R&D Systems Cat#1506-D4/CF) (human, UniProt Q9NR61 27-524); assay: MSD ECL multi-spot, Fab 0.43 uM, blank 879
T2 construct: Bought recombinant protein; also called rHuman DLL4; delta-like protein 4

[3] = molecular target: T3, rHuman Notch-1/Fc Chimera, CF (R&D Systems Cat#3647-TK) (human, UniProt P46531 19-526); assay: MSD ECL multi-spot, Fab 0.43 uM, blank 879
T3 construct: Bought Fc chimera; Fc part of the bought chimera not given

[4] = molecular target: T4, rHuman IGF-1 sR (IGF-1 sR), CF (R&D Systems Cat#391-GR) (human, UniProt P08069 31-932); assay: ECL (MSD multi-spot), antigen spotted on plate; Fab 1.6 nM; blank 713
T4 construct: Bought soluble receptor; also called insulin-like growth factor-1 soluble receptor; IGF-R1

[5] = molecular target: T5, rHuman HGF R/c-MET/Fc Chimera, CF (R&D Systems Cat#358-MT/CF) (human, UniProt P08581 25-932); assay: as above
T5 construct: Bought protein; also called HGF R/Fc; hepatocyte growth factor receptor; Fc part of the bought chimera not given

[6] = molecular target: T6, Recombinant Human DLL4 (R&D Systems Cat#1506-D4/CF) (human, UniProt Q9NR61 27-524); assay: as above
T6 construct: Bought protein; also called rHuman DLL4; delta-like protein 4

[7] = molecular target: T7, rHuman EGF R/Fc Chimera, CF (R&D Systems Cat#344-ER) (human, UniProt P00533 25-645); assay: as above
T7 construct: Bought protein; also called epidermal growth factor receptor; Fc part of the bought chimera not given

[8] = molecular target: T4, rHuman IGF-1 sR (IGF-1 sR), CF (R&D …); assay: ECL (MSD multi-spot), antigen spotted on plate; Fab 0.32 nM; blank 518
[9] = molecular target: T5, rHuman HGF R/c-MET/Fc Chimera, CF (R&D …); assay: as above
[10] = molecular target: T6, Recombinant Human DLL4 (R&D Systems …); assay: as above
[11] = molecular target: T7, rHuman EGF R/Fc Chimera, CF (R&D …); assay: as above
[12] = molecular target: T4, rHuman IGF-1 sR (IGF-1 sR), CF (R&D …); assay: ECL (MSD multi-spot), antigen spotted on plate; Fab 8 nM; blank 1117
[13] = molecular target: T5, rHuman HGF R/c-MET/Fc Chimera, CF (R&D …); assay: as above
[14] = molecular target: T6, Recombinant Human DLL4 (R&D Systems …); assay: as above
[15] = molecular target: T7, rHuman EGF R/Fc Chimera, CF (R&D …); assay: as above
[16] = molecular target: T4, rHuman IGF-1 sR (IGF-1 sR), CF (R&D …); assay: ECL (MSD multi-spot), antigen spotted on plate; Fab 1000 nM; blank 2186
[17] = molecular target: T5, rHuman HGF R/c-MET/Fc Chimera, CF (R&D …); assay: as above
[18] = molecular target: T6, Recombinant Human DLL4 (R&D Systems …); assay: as above
[19] = molecular target: T7, rHuman EGF R/Fc Chimera, CF (R&D …); assay: as above
[20] = molecular target: T4, rHuman IGF-1 sR (IGF-1 sR), CF (R&D …); assay: ECL (MSD multi-spot), antigen spotted on plate; Fab 40 nM; blank 1442
[21] = molecular target: T5, rHuman HGF R/c-MET/Fc Chimera, CF (R&D …); assay: as above
[22] = molecular target: T6, Recombinant Human DLL4 (R&D Systems …); assay: as above
[23] = molecular target: T7, rHuman EGF R/Fc Chimera, CF (R&D …); assay: as above
[24] = molecular target: T4, rHuman IGF-1 sR (IGF-1 sR), CF (R&D …); assay: ECL (MSD multi-spot), antigen spotted on plate; Fab 200 nM; blank 1787
[25] = molecular target: T5, rHuman HGF R/c-MET/Fc Chimera, CF (R&D …); assay: as above
[26] = molecular target: T6, Recombinant Human DLL4 (R&D Systems …); assay: as above
[27] = molecular target: T7, rHuman EGF R/Fc Chimera, CF (R&D …); assay: as above
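Also: blank spot per well as comparator with Hit at signal to blank ratio of 4 or more.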

B1: Fab VH1-46_IGHD6-13*01_IGHJ4*01 & B3_IGKJ1*01 (Fab, V domains shown)
VH: QVQLVQSGAEVKKPGASVKVSCKASGYTFTSYYMHWVRQAPGQGLEWMGIINPSGGSTSYAQKFQGRVTMTRDTSTSTVYMELSSLRSEDTAVYYCAREGYSSSWYDYFDYWGQGTLVTVSS
VL: not shown
notes: Expressed in E. coli as Fab: heavy chain with CH1 plus Flag and His tags from Plasmid A, kappa light chain constant region from Plasmid C; also called Fab No. 6
ECL signal [1]: 1140 | ECL signal [2]: 2540 | ECL signal [3]: 1790

B2: Fab VH1-46_IGHD6-6*01>1_IGHJ1*01_S104F & L6_IGKJ1*01 (Fab, V domains shown)
VH: B1 VH with G100E, S104F, W105S, Y106A, D107E, D110Q, Y111H
VL: not shown
notes: Expressed in E. coli as a Fab; The heavy chain also carries the CH1 with Flag and His tags from Plasmid A, and the light chain the kappa CL from Plasmid C; also called VH1-46_IGHD6-6*01_IGHJ1*01 S104F & L6_IGKJ1*01; IGHV1-46*01
ECL signal [4]: 966 | ECL signal [5]: 861 | ECL signal [6]: 5920 | ECL signal [7]: 987 | ECL signal [8]: 630 | ECL signal [9]: 710 | ECL signal [10]: 916 | ECL signal [11]: 709 | ECL signal [12]: 1520 | ECL signal [13]: 1620 | ECL signal [14]: 44800 | ECL signal [15]: 1470 | ECL signal [16]: 3070 | ECL signal [17]: 3310 | ECL signal [18]: 35300 | ECL signal [19]: 3580 | ECL signal [20]: 2140 | ECL signal [21]: 2110 | ECL signal [22]: 62000 | ECL signal [23]: 2300 | ECL signal [24]: 2780 | ECL signal [25]: 2840 | ECL signal [26]: 58700 | ECL signal [27]: 2920
